Measurements: article PMC2901844 (DNA repair, 2010)

B1: catalytic domain of human UNG2 (Δ93 UNG2) (domain or fragment, UniProt P13051-1 94-313, looked up)
chain: FGESWKKHLSGEFGKPYFIKLMGFVAEERKHYTVYPPPHQVFTWTQMCDIKDVKVVILGQDPYHGPNQAHGLCFSVQRPVPPPPSLENIYKELSTDIEDFVHPGHGDLSGWAKQGVLLLNAVLTVRAHQANSHKERGWEQFTDAVVSWLNQNSNGLVFLLWGSYAQKKGSAIDRKRHHVLQTAHPSPLSVYRGFFGCRHFSKTNELLQKSGKKPIDWKEL
B2: Cy-3 labelled Δ93 UNG2 (domain or fragment, human, UniProt P13051-1 94-313, looked up)
chain: B1 chain
modifications: Cy-3 label (Cy 3 Ab Labeling kit), sites not stated

Tests used:
[1] = molecular target: T1, full length Cricetulus griseus Xrcc1-ECFP (Cricetulus griseus, UniProt O54935 1-633); assay: pull-down
T1 sequence (O54935 whole entry): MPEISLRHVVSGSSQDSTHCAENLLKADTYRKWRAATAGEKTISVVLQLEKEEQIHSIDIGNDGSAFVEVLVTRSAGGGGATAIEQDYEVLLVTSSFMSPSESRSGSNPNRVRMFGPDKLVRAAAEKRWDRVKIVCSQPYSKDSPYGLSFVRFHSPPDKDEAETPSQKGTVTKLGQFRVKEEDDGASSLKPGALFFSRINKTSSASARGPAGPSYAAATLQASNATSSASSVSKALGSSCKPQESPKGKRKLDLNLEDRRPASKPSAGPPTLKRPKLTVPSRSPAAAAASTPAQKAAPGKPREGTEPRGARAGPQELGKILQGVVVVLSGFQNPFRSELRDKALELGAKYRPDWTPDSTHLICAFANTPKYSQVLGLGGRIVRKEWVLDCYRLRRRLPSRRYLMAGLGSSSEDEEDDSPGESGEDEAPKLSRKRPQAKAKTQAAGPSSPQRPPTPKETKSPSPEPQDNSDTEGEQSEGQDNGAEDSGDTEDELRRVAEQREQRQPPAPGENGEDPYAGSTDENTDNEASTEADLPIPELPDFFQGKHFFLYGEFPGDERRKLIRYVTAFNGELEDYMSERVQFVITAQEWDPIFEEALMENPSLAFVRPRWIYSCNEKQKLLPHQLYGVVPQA

[2] = molecular target: T1, full length Cricetulus griseus …; assay: far-Western, overlay or dot blot
Xrcc1(1–325)-ECFP = Xrcc1(1–325)-ECFP (Cricetulus griseus, UniProt O54935 1-325); assay: far-Western, overlay or dot blot
Xrcc1(1–325)-ECFP, sequence (O54935 1-325): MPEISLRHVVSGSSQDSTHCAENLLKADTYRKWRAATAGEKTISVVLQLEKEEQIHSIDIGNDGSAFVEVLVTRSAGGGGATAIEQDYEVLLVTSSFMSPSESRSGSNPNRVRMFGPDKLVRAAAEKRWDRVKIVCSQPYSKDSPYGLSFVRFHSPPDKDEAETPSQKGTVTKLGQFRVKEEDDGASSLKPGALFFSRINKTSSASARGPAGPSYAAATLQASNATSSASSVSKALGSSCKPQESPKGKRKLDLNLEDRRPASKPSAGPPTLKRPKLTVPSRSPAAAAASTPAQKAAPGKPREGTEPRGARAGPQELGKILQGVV

Binder	binding result [1]	binding result [2]	binding result (Xrcc1(1–325)-ECFP)
B1	binds	–	–
B2	–	binds	binds
